Consider 38 variants from the RNAGym collection of RNA variant scans (doi:10.7554/elife.80360).

B1: Hairpin Ribozyme (parent)
chain: GUCCUCUUUCACGUGCGCGUGAAAGAGAGAAGUGAACCAGAGAAACACACGUUGUGGUAUAUUACCUGGUA

The data set covers variants of B1. The data set can be described thus: self-cleavage, relative activity (ratio to wild type); higher = more cleavage; co-transcriptional.
For GUCCUCUUUGACGUGCGCGUGAAAGAGAGAAGUGAACCAGAGAAACACACGUUGUGGUAUAUUACCUGGUC [C10G A71C], the self-cleavage was determined as 1.2.

For the variant GUCCUCUUUGACGUGCGCGUGAAAGAGAGAAGUGAACCAGAGACACACACGUUGUGGUAUAUUACCUGGUA [C10G A44C], the self-cleavage came out at 0.126.

Take GUCCUCUUUGACGUGCGCGUGAAAGAGAGAAGUGAACCAGAGAUACACACGUUGUGGUAUAUUACCUGGUA [C10G A44U]: the self-cleavage turned out to be 0.133.

GUCCUCUUUGACGUGCGCGUGAAAGAGAGAAGUGAACCAGAGAGACACACGUUGUGGUAUAUUACCUGGUA [C10G A44G]: the self-cleavage worked out at 0.108.

Consider GUCCUCUUUGACGUGCGCGUGAAAGAGACAAGUGAACCAGAGAAACACACGUUGUGGUAUAUUACCUGGUA [C10G G29C], for which the self-cleavage came to 0.106.

With GUCCUCUUUGACGUGCGCGUGAAAGAGAAAAGUGAACCAGAGAAACACACGUUGUGGUAUAUUACCUGGUA [C10G G29A], the self-cleavage came to 0.0932.

Turning to GUCCUCUUUGACGUGCGCGUGAAAGAGAGAAGUGAACCAGAGAAACACACGUUGUGGUUUAUUACCUGGUA [C10G A59U], the self-cleavage was 0.16.

As for GUCCUCUUUGACGUGCGCGUGAACGAGAGAAGUGAACCAGAGAAACACACGUUGUGGUAUAUUACCUGGUA [C10G A24C], the self-cleavage is 0.641.

In the case of GUCCUCUUUGACGUGCGCGUGAAAGAGAGAAGUGCACCAGAGAAACACACGUUGUGGUAUAUUACCUGGUA [C10G A35C], the self-cleavage stood at 0.726.

In the case of GUCCUCUUUGACGUGCGCGUGAAAGAGAGAAGUGGACCAGAGAAACACACGUUGUGGUAUAUUACCUGGUA [C10G A35G], the self-cleavage was 0.656.

For GUCCUCUUUGACGUGCGCGUGAAAGAGAGAAGUGAGCCAGAGAAACACACGUUGUGGUAUAUUACCUGGUA [C10G A36G], the self-cleavage is 0.778.

Take GUCCUCUUUGACGUGCGCGUGAAAGACAGAAGUGAACCAGAGAAACACACGUUGUGGUAUAUUACCUGGUA [C10G G27C]: the self-cleavage amounted to 0.147.

As to GUCCUCUUUGACGUGCGCGUGAAAGAAAGAAGUGAACCAGAGAAACACACGUUGUGGUAUAUUACCUGGUA [C10G G27A], the self-cleavage is 0.405.

Turning to GUCCUCUUUGACGUGCGCGUGAAAGAGAGAAGUGAAACAGAGAAACACACGUUGUGGUAUAUUACCUGGUA [C10G C37A], the self-cleavage turned out to be 0.22.

As for GUCCUCUUUGACGUGCGCGUGAAAGAGAGAAGUGAACCAGAGGAACACACGUUGUGGUAUAUUACCUGGUA [C10G A43G], the self-cleavage was determined as 0.175.

GUCCUCUUUGACGUGCGCGUGAAAGAGAGAAGUGAACCAGAGAAACACAAGUUGUGGUAUAUUACCUGGUA [C10G C50A]: the self-cleavage is 0.198.

As to GUCCUCUUUGACGUGCGCGUGAAAGAGAGAAGUGAACCAGAGAAACACACGUUGUGGUAUAUUACUUGGUA [C10G C66U], the self-cleavage turned out to be 0.347.

With GUCCUCUUUGACGUGCGCGUGAAAGAGAGAAGUGAACCAGAGAAACACACGUUGUGGUAUAUUACGUGGUA [C10G C66G], the self-cleavage came to 0.189.

Turning to GUCCUCUUUGACGUGCGCGUGAAAGAGAGGAGUGAACCAGAGAAACACACGUUGUGGUAUAUUACCUGGUA [C10G A30G], the self-cleavage came out at 0.143.

Turning to GUCCUCUUUGACGUGCGCGUGAAAGAGAGCAGUGAACCAGAGAAACACACGUUGUGGUAUAUUACCUGGUA [C10G A30C], the self-cleavage worked out at 0.168.

Regarding GUCCUCUUUGACGUGCGCGUGAAAGAGAGUAGUGAACCAGAGAAACACACGUUGUGGUAUAUUACCUGGUA [C10G A30U], the self-cleavage was found to be 0.0991.

With GUCCUCUUUGACGUGCGCGUAAAAGAGAGAAGUGAACCAGAGAAACACACGUUGUGGUAUAUUACCUGGUA [C10G G21A], the self-cleavage is 0.704.

As to GUCCUCUUUGACGUGCGCGUUAAAGAGAGAAGUGAACCAGAGAAACACACGUUGUGGUAUAUUACCUGGUA [C10G G21U], the self-cleavage was found to be 0.872.

As for GUCCUCUUUGACGUGCGCGUCAAAGAGAGAAGUGAACCAGAGAAACACACGUUGUGGUAUAUUACCUGGUA [C10G G21C], the self-cleavage was determined as 0.93.

For GUCCUCUUUGACGUGUGCGUGAAAGAGAGAAGUGAACCAGAGAAACACACGUUGUGGUAUAUUACCUGGUA [C10G C16U], the self-cleavage stood at 0.735.

In the case of GUCCUCUUUGACGUGAGCGUGAAAGAGAGAAGUGAACCAGAGAAACACACGUUGUGGUAUAUUACCUGGUA [C10G C16A], the self-cleavage was found to be 0.555.

In the case of GUCCUCUUUGACGUGCGCGUGAAAGAGAGAAGUGAACCAGAGAAAAACACGUUGUGGUAUAUUACCUGGUA [C10G C46A], the self-cleavage worked out at 0.106.

On to GUCCUCUUUGACGUGCGCGUGAAAGAGAGAAGUGAACCAGAGAAACACACGUUGUGGUAUAUUCCCUGGUA [C10G A64C], for which the self-cleavage worked out at 0.169.

With GUCCUCUUUGACGUGCGCGUGAAAGAGAGAAGUGAACCUGAGAAACACACGUUGUGGUAUAUUACCUGGUA [C10G A39U], the self-cleavage was 0.273.

For the variant GUCCUCUUUGACGUGCUCGUGAAAGAGAGAAGUGAACCAGAGAAACACACGUUGUGGUAUAUUACCUGGUA [C10G G17U], the self-cleavage came out at 0.539.

In the case of GUCCUCUUUGACGUGCCCGUGAAAGAGAGAAGUGAACCAGAGAAACACACGUUGUGGUAUAUUACCUGGUA [C10G G17C], the self-cleavage was determined as 0.533.

Regarding GUCCUCUUUGACGUGCGCGUGAAAGAGAGAAGUGAACCAGAGAAACACACGUUGUGGUAUUUUACCUGGUA [C10G A61U], the self-cleavage was 0.2.

As to GUCCUCUUUGACGUGCGCGUGAAAGAGAGAAGUGAACCAGAGAAACACACGUUGUGGUAUCUUACCUGGUA [C10G A61C], the self-cleavage was found to be 0.255.

For the variant GUCCUCUUUGACAUGCGCGUGAAAGAGAGAAGUGAACCAGAGAAACACACGUUGUGGUAUAUUACCUGGUA [C10G G13A], the self-cleavage was 0.568.

With GUCCUCUUUGACGUGCGCGUGAAAGAGUGAAGUGAACCAGAGAAACACACGUUGUGGUAUAUUACCUGGUA [C10G A28U], the self-cleavage came out at 0.586.

GUCCUCUUUGACGUGCGCGUGAAAGAGGGAAGUGAACCAGAGAAACACACGUUGUGGUAUAUUACCUGGUA [C10G A28G]: the self-cleavage amounted to 0.954.

For GUCCUCUUUGACGUGCGCGUGAAAGAGAGAAGUGAACCAGAGAAACACACGUUGUGGUAUAUUAGCUGGUA [C10G C65G], the self-cleavage was found to be 0.246.

GUCCUCUUUGACGUGCGCGUGAAAGAGAGAAGUGAACCAGAGAAACAAACGUUGUGGUAUAUUACCUGGUA [C10G C48A]: the self-cleavage worked out at 0.151.
